This is an account of results in patent publication US20250346685A1 (published 2025).

Test [1] deals with T1, human CD3 on T cells (Jurkat cells; human peripheral blood CD4+ and CD8+ T-cells) (human, UniProt P07766 23-207).
T1 construct: whole, on cells; also called CD4T; CD4 + T
Nature of the test: flow cytometry on human peripheral blood CD4+ T-cells. The method, then:
(§1) Fresh human peripheral blood was taken and PBMC was isolated by Ficoll. Paque Plu (GE, 17-1440-03). PBMC was adjusted to 5×10⁵ cells/mL with 4% calf serum (Hyclone, SH30626.06), 100 μL/well was added to a 96-well U-plate, the supernatant was centrifuged off and 100 μL of gradient diluted antibody (with starting concentration of 1800 nM, 3-fold dilution, 10 gradients) was added to each well and incubated for 60 min at 4° C. 50 μL/well of Alexa Fluro647 labeled goat anti-human IgG Fc (1:300 dilution) was added to the secondary antibody, with ice bath for 20 min, and 50 μL/well PI added after washing once, incubated for 5 min, and flow cytometer (BD C6) was used for detection. The control antibody REGN5458 was synthesized and prepared according to US20200024356.
In general terms: In flow cytometry, cells or beads pass a laser one at a time.

Test [2] addresses T2, human CD3εγ-Fc heterodimer (human).
T2 construct: also called human CD3εγ recombinant protein; human CD3εγ protein
T2 chain 1: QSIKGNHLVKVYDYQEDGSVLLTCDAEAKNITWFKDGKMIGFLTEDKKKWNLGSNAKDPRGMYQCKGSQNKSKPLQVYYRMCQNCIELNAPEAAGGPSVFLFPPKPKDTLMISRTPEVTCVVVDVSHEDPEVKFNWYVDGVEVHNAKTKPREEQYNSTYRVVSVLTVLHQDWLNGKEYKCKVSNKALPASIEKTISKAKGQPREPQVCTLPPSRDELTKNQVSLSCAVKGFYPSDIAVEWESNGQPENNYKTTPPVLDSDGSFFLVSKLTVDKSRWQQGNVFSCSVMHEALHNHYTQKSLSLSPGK
T2 chain 2: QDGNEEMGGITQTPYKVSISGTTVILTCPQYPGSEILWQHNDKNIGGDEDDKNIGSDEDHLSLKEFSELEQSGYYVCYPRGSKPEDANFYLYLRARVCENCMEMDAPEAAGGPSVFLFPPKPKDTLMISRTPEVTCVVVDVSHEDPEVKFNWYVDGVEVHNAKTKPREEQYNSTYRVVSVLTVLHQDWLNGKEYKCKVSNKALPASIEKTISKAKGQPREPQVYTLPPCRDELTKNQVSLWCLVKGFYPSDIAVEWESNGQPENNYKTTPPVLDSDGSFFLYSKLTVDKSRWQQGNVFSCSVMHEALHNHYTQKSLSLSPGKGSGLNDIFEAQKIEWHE
Nature of the test: SPR (Biacore T200), antigen amine-coupled on CM5 chip, antibody as analyte, 1:1 model. The protocol:
10 μg/mL human or cynomolgus monkey BCMA or CD3εγ recombinant antigen was bound to a CM5 chip (GE healthcare) by amino conjugating, while the amount of antigen bound was controlled to approximately 200 RU. After baseline plateau, gradient diluted antibodies (7 gradients of 2-fold dilutions from 10 μg/mL) were flowed through the chip at a flow rate of 30 μL/min for a binding time of 350 seconds and a dissociation time of 600 seconds. Kinetic constants were fitted using Biacore T200 evaluation software with a 1:1 binding model.
Background: SPR reads the build-up and loss of mass on a sensor chip optically.

Test [3] deals with T1, human CD3 on T cells (Jurkat cells; …). The test is described as follows: flow cytometry on human peripheral blood CD8+ T-cells. The method, then: as §1

As usually defined, the EC50 is the concentration needed to bring the measured effect to its halfway point. Read a low EC50 as an effect from little substance. For orientation: Kd means a measure of binding affinity in units of concentration. A lower Kd goes with tighter binding.

B1: BCMA × CD3 κλ004 (bispecific antibody, human IgG4 S228P, kappa, lambda)
light 1: DIVLTQSPASLAVSPGQRATITCRASKSVTTSGYSYIHWYQKKPGQPPKLLIYLASDLEAGVPARFSGSGSGTDFTLTINPVEAEDTANYYCQHSRELPWTFGQGTKVEIKRTVAAPSVFIFPPSDEQLKSGTASVVCLLNNFYPREAKVQWKVDNALQSGNSQESVTEQDSKDSTYSLSSTLTLSKADYEKHKVYACEVTHQGLSSPVTKSFNRGEC
heavy 1: QVQLVQSGSELKKPGASVKVSCKASGYIFTNFGMNWVREAPGQGLEWMGWINTYTGEQIYADGFTGRFVFSLDTSASTAYLQISSLKAEDTAVYFCARGEIYYGYDVGFVYWGQGTLVTVSSASTKGPSVFPLAPCSRSTSESTAALGCLVKDYFPEPVTVSWNSGALTSGVHTFPAVLQSSGLYSLSSVVTVPSSSLGTKTYTCNVDHKPSNTKVDKRVESKYGPPCPPCPAPEFEGGPSVFLFPPKPKDTLMISRTPEVTCVVVDVSQEDPEVQFNWYVDGVEVHNAKTKPREEQFNSTYRVVSVLTVLHQDWLNGKEYKCKVSNKGLASSIEKTISKAKGQPREPQVCTLPPSQEEMTKNQVSLSCAVKGFYPSDIAVEWESNGQPENNYKTTPPVLDSDGSFFLVSKLTVDKSRWQEGNVFSCSVMHEALHNHYTQKSLSLSLGK
light 2: QAVVTQEPSLTVSPGGTVTLTCRSSTGAVTTSNYANWVQEKPGQAPRGLIGGTNKRAPWTPARFSGSLLGGKAALTITGAQAEDEAEYYCVLWYSNLWVFGGGTKLTVLGQPKAAPSVTLFPPSSEELQANKATLVCLISDFYPGAVTVAWKADSSPVKAGVETTTPSKQSNNKYAASSYLSLTPEQWKSHRSYSCQVTHEGSTVEKTVAPTECS
heavy 2: EVQLVESGGGLVQPGGSLRLSCAASGFTFNTYAMNWVRKAPGKGLEWVGRIRSKYNNYATYYADSVKDRFTISRDDSKNSLYLQMNSLKTEDTAVYYCVRHGNFGNSYVSWFAYWGQGTLVTVSSASTKGPSVFPLAPCSRSTSESTAALGCLVKDYFPEPVTVSWNSGALTSGVHTFPAVLQSSGLYSLSSVVTVPSSSLGTKTYTCNVDHKPSNTKVDKRVESKYGPPCPPCPAPEFEGGPSVFLFPPKPKDTLMISRTPEVTCVVVDVSQEDPEVQFNWYVDGVEVHNAKTKPREEQFNSTYRVVSVLTVLHQDWLNGKEYKCKVSNKGLASSIEKTISKAKGQPREPQVYTLPPCQEEMTKNQVSLWCLVKGFYPSDIAVEWESNGQPENNYKTTPPVLDSDGSFFLYSKLTVDKSRWQEGNVFSCSVMHEALHNHYTQKSLSLSLGK
notes: also called BCMA×CD3 κλ bispecific antibody
With B1, the 50% effective concentration (EC50) in test [1] was found to be 79 nM; in test [3], 67 nM. Further, binding in test [2] was characterised by a dissociation constant (Kd) of 32 nM.
